From the supplement of paper PMC10724198
± gives the standard deviation of the averaged measurements.

Test system: Saccharomyces cerevisiae
Test: protein stability index of tFT-peptide fusion (C-terminal peptide) (PSI (0-1 scale)); higher = more stable (slower turnover)
Conditions: temperature: 30 C
Protocol: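 MPS profiling in S. cerevisiae of the yeast C-terminome library: the last 12 aa of each annotated ORF are fused to the C-terminus of a sfGFP-mCherry timer, after a GGGS linker. Cells are FACS-sorted into 8 mCherry/sfGFP bins and deep-sequenced. PSI runs from 0 (unstable) to 1 (stable); wild type and das1Δ backgrounds, two technical replicates each.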

[1] = genetic background: das1 deletion

Sequence: KIGKGKLYFAIV [YDR220C C-terminal 12 aa]
- protein stability index [1]: 0.666 ± 0.011
- protein stability index (genetic background: wild type): 0.491 ± 0.015

Sequence: SLDGDTYFIIRS [YDL158C C-terminal 12 aa]
- protein stability index [1]: 0.713 ± 0.024
- protein stability index (genetic background: wild type): 0.688 ± 0.033

Sequence: VVVVPSVVETRK [SSO2 C-terminal 12 aa]
- protein stability index [1]: 0.681 ± 0.031
- protein stability index (genetic background: wild type): 0.668 ± 0.026

Sequence: CLGDSIVNLLLI [YGR259C C-terminal 12 aa]
- protein stability index [1]: 0.677 ± 0.011
- protein stability index (genetic background: wild type): 0.3352 ± 0.0027

Sequence: IKGWFVNGQVPR [PEX17 C-terminal 12 aa]
- protein stability index [1]: 0.716 ± 0.0072
- protein stability index (genetic background: wild type): 0.674 ± 0.029

Sequence: EEFLTLLGRRSI [FOL2 C-terminal 12 aa]
- protein stability index [1]: 0.708 ± 0.01
- protein stability index (genetic background: wild type): 0.723 ± 0.012

Sequence: VKKLVTDMLAKI [CFT2 C-terminal 12 aa]
- protein stability index [1]: 0.6957 ± 0.00094
- protein stability index (genetic background: wild type): 0.669 ± 0.029

Sequence: GKWYCDDCKKKL [PHO23 C-terminal 12 aa]
- protein stability index [1]: 0.729 ± 0.026
- protein stability index (genetic background: wild type): 0.717 ± 0.048

Sequence: VHCGCRGCASTD [BUD31 C-terminal 12 aa]
- protein stability index [1]: 0.669 ± 0.0018
- protein stability index (genetic background: wild type): 0.673 ± 0.017

Sequence: EREKVDIHIPQV [BEM3 C-terminal 12 aa]
- protein stability index [1]: 0.711 ± 0.02
- protein stability index (genetic background: wild type): 0.701 ± 0.011

Sequence: QRTRRRMSLYKL [TOS3 C-terminal 12 aa]
- protein stability index [1]: 0.807 ± 0.036
- protein stability index (genetic background: wild type): 0.853 ± 0.03

Sequence: VYELVDAEALFS [YDR131C C-terminal 12 aa]
- protein stability index [1]: 0.745 ± 0.02
- protein stability index (genetic background: wild type): 0.682 ± 0.012

Sequence: GNLRDTLIETYS [TIF6 C-terminal 12 aa]
- protein stability index [1]: 0.6559 ± 0.0033
- protein stability index (genetic background: wild type): 0.679 ± 0.0088

Sequence: FVDGIANSKKST [SRB7 C-terminal 12 aa]
- protein stability index [1]: 0.699 ± 0.01
- protein stability index (genetic background: wild type): 0.682 ± 0.023

Sequence: SKKTTISAKKQQ [SGE1 C-terminal 12 aa]
- protein stability index [1]: 0.713 ± 0.014
- protein stability index (genetic background: wild type): 0.51092 ± 0.00037

Sequence: RGIAAIRESLSN [YIR042C C-terminal 12 aa]
- protein stability index [1]: 0.6681 ± 0.006
- protein stability index (genetic background: wild type): 0.697 ± 0.02

Sequence: LSDKNPEFKYMY [TNA1 C-terminal 12 aa]
- protein stability index [1]: 0.686 ± 0.0071
- protein stability index (genetic background: wild type): 0.706 ± 0.0095

Sequence: ANGRHPQPSITL [CDC33 C-terminal 12 aa]
- protein stability index [1]: 0.71 ± 0.016
- protein stability index (genetic background: wild type): 0.709 ± 0.0097

Sequence: LKNGDKPHMLKF [RPL6A C-terminal 12 aa]
- protein stability index [1]: 0.6789 ± 0.0021
- protein stability index (genetic background: wild type): 0.72 ± 0.053

Sequence: NGTAKSAQSTTV [YAR019W-A C-terminal 12 aa]
- protein stability index [1]: 0.67513 ± 0.00026
- protein stability index (genetic background: wild type): 0.729 ± 0.016

Sequence: SDELSRNFDSQG [VPS3 C-terminal 12 aa]
- protein stability index [1]: 0.705 ± 0.017
- protein stability index (genetic background: wild type): 0.726 ± 0.015

Sequence: DRLKRRNNDYGF [MSO1 C-terminal 12 aa]
- protein stability index [1]: 0.695 ± 0.014
- protein stability index (genetic background: wild type): 0.738 ± 0.054

Sequence: ALDAERYLSAQE [TRR2 C-terminal 12 aa]
- protein stability index [1]: 0.698 ± 0.025
- protein stability index (genetic background: wild type): 0.672 ± 0.015

Sequence: LSSKKQTVMDKE [POL5 C-terminal 12 aa]
- protein stability index [1]: 0.6463 ± 0.0045
- protein stability index (genetic background: wild type): 0.749 ± 0.051

Sequence: IEAPQFYRYWSA [SWI3 C-terminal 12 aa]
- protein stability index [1]: 0.724 ± 0.033
- protein stability index (genetic background: wild type): 0.706 ± 0.011

Sequence: PGDTLIEVIDLT [WSS1 C-terminal 12 aa]
- protein stability index [1]: 0.692 ± 0.025
- protein stability index (genetic background: wild type): 0.7105 ± 0.00019

Sequence: AITSAQELLDSK [RBL2 C-terminal 12 aa]
- protein stability index [1]: 0.687 ± 0.024
- protein stability index (genetic background: wild type): 0.72 ± 0.0079

Sequence: QYQHQHQQDPRT [NAF1 C-terminal 12 aa]
- protein stability index [1]: 0.701 ± 0.014
- protein stability index (genetic background: wild type): 0.728 ± 0.049

Sequence: IEEMLEIISGYA [RPC17 C-terminal 12 aa]
- protein stability index [1]: 0.5664 ± 0.0013
- protein stability index (genetic background: wild type): 0.584 ± 0.008

Sequence: LNRKEESDSFVA [CHS3 C-terminal 12 aa]
- protein stability index [1]: 0.6769 ± 0.0027
- protein stability index (genetic background: wild type): 0.679 ± 0.017

Sequence: HFCYIGRITTHT [YDL114W-A C-terminal 12 aa]
- protein stability index [1]: 0.681 ± 0.017
- protein stability index (genetic background: wild type): 0.689 ± 0.018

Sequence: RAVSGVELRIYV [POP7 C-terminal 12 aa]
- protein stability index [1]: 0.644 ± 0.012
- protein stability index (genetic background: wild type): 0.641 ± 0.017

Sequence: MKKPRKSKKAAN [KRE33 C-terminal 12 aa]
- protein stability index [1]: 0.716 ± 0.018
- protein stability index (genetic background: wild type): 0.714 ± 0.039

Sequence: VEAVKRVLTKKF [IMG2 C-terminal 12 aa]
- protein stability index [1]: 0.6883 ± 0.0047
- protein stability index (genetic background: wild type): 0.694 ± 0.012

Sequence: DEDVDFLKVQVF [HAP4 C-terminal 12 aa]
- protein stability index [1]: 0.709 ± 0.041
- protein stability index (genetic background: wild type): 0.747 ± 0.064

Sequence: SETIEELLKEVE [HYR1 C-terminal 12 aa]
- protein stability index [1]: 0.708 ± 0.0081
- protein stability index (genetic background: wild type): 0.7 ± 0.015

Sequence: ICYTFKHLVSHK [FRT2 C-terminal 12 aa]
- protein stability index [1]: 0.691 ± 0.016
- protein stability index (genetic background: wild type): 0.6574 ± 0.0033

Sequence: QSARRQRGSIAM [SDS24 C-terminal 12 aa]
- protein stability index [1]: 0.683 ± 0.02
- protein stability index (genetic background: wild type): 0.6657 ± 0.0037

Sequence: NSDTIARIATVM [DAS1 C-terminal 12 aa]
- protein stability index [1]: 0.685 ± 0.011
- protein stability index (genetic background: wild type): 0.595 ± 0.0036

Sequence: LNTSNECCTSDD [BIL2 C-terminal 12 aa]
- protein stability index [1]: 0.692 ± 0.023
- protein stability index (genetic background: wild type): 0.669 ± 0.016

Sequence: KLVWTLQSLCMR [YEL032C-A C-terminal 12 aa]
- protein stability index [1]: 0.688 ± 0.0084
- protein stability index (genetic background: wild type): 0.681 ± 0.021

Sequence: KAELDRYKRENQ [SEM1 C-terminal 12 aa]
- protein stability index [1]: 0.7052 ± 0.0058
- protein stability index (genetic background: wild type): 0.709 ± 0.049

Sequence: IKSLFSLAKEAS [MSC7 C-terminal 12 aa]
- protein stability index [1]: 0.703 ± 0.01
- protein stability index (genetic background: wild type): 0.5867 ± 0.0023

Sequence: ISVSSGIENFAT [YJL202C C-terminal 12 aa]
- protein stability index [1]: 0.692 ± 0.042
- protein stability index (genetic background: wild type): 0.654 ± 0.019

Sequence: QRSKSKRQKRRK [YNG1 C-terminal 12 aa]
- protein stability index [1]: 0.705 ± 0.017
- protein stability index (genetic background: wild type): 0.652 ± 0.036

Sequence: FAFSFPITNVLE [YAL016C-B C-terminal 12 aa]
- protein stability index [1]: 0.703 ± 0.012
- protein stability index (genetic background: wild type): 0.683 ± 0.049

Sequence: EVALAPSSNMIF [YKL083W C-terminal 12 aa]
- protein stability index [1]: 0.716 ± 0.02
- protein stability index (genetic background: wild type): 0.713 ± 0.0034

Sequence: EVLAADNTRVPC [YLL067C C-terminal 12 aa]
- protein stability index [1]: 0.6968 ± 0.0039
- protein stability index (genetic background: wild type): 0.677 ± 0.028

Sequence: NNLHLPGNTGFF [PDC2 C-terminal 12 aa]
- protein stability index [1]: 0.728 ± 0.0081
- protein stability index (genetic background: wild type): 0.712 ± 0.043

Sequence: DEFQRLTNGIPY [STT4 C-terminal 12 aa]
- protein stability index [1]: 0.695 ± 0.024
- protein stability index (genetic background: wild type): 0.6923 ± 0.0061

Sequence: CDEVVEHVKASA [PCM1 C-terminal 12 aa]
- protein stability index [1]: 0.708 ± 0.0093
- protein stability index (genetic background: wild type): 0.687 ± 0.017

Sequence: SKSFPTAGEMRA [PET8 C-terminal 12 aa]
- protein stability index [1]: 0.711 ± 0.035
- protein stability index (genetic background: wild type): 0.7283 ± 0.0038

Sequence: WTALVVNILGRF [CWH41 C-terminal 12 aa]
- protein stability index [1]: 0.634 ± 0.012
- protein stability index (genetic background: wild type): 0.634 ± 0.011

Sequence: KALELILNILEH [SNU56 C-terminal 12 aa]
- protein stability index [1]: 0.683 ± 0.033
- protein stability index (genetic background: wild type): 0.667 ± 0.012

Sequence: IYKCEDERIDYF [KOG1 C-terminal 12 aa]
- protein stability index [1]: 0.6594 ± 0.00099
- protein stability index (genetic background: wild type): 0.726 ± 0.015

Sequence: LLRNGDIDTITK [COG3 C-terminal 12 aa]
- protein stability index [1]: 0.7045 ± 0.0048
- protein stability index (genetic background: wild type): 0.68 ± 0.016

Sequence: SGAGARGSSAAA [LYS2 C-terminal 12 aa]
- protein stability index [1]: 0.702 ± 0.011
- protein stability index (genetic background: wild type): 0.676 ± 0.032

Sequence: QTVRKLDMDFEV [REV1 C-terminal 12 aa]
- protein stability index [1]: 0.735 ± 0.032
- protein stability index (genetic background: wild type): 0.656 ± 0.03

Sequence: YAGENFHHGDKL [ENO2 C-terminal 12 aa]
- protein stability index [1]: 0.6954 ± 0.003
- protein stability index (genetic background: wild type): 0.749 ± 0.034

Sequence: RRPSSTSQYLIR [CDC20 C-terminal 12 aa]
- protein stability index [1]: 0.692 ± 0.01
- protein stability index (genetic background: wild type): 0.679 ± 0.038

Sequence: YCIYQILILVKH [YCL065W C-terminal 12 aa]
- protein stability index [1]: 0.149 ± 0.019
- protein stability index (genetic background: wild type): 0.171 ± 0.013
